For data set [1], the target named is Plasmodium falciparum lactate dehydrogenase (PfLDH) (Plasmodium falciparum, UniProt Q76NM3 1-316). The data set can be described thus: antibody-aptamer sandwich plasmon-enhanced fluorescence; PfLDH captured by anti-PLDH on AuNP array; spiked human blood; 0.1 uM aptamer; sandwich LOD 18 fM (not a Kd); association time constant 45 +/- 15 min; Aptamer step: PBS (10 mM NaCl, 10 mM NaH2PO4, 10 mM Na2HPO4, 1 mM MgCl2, pH 7.1), 0.1 uM Cy5-aptamer, 2 h in the dark; temperature not stated; analyte spiked in human blood. Particulars: protein: recombinant; chain copies: 4; label: 5'-Cy5.

For data set [2], the target named is Plasmodium vivax lactate dehydrogenase (PvLDH) (Plasmodium vivax, UniProt Q4PRK9 1-316). Description: antibody-aptamer sandwich plasmon-enhanced fluorescence. Particulars: protein: recombinant; chain copies: 4.

Consider CTGGGCGGTAGAACCATAGTGACCCAGCCGTCTAC (ssDNA) [malaria 2008s aptamer], for which the binding result is “binds” in data set [1] and “no binding” in data set [2].
